# Biological target: HIV-1 integrase (IN), recombinant, from the San Francisco isolate SF2 (HIV-1 (San Francisco isolate SF2))
# Experiment: cross-linking
substance,measurement,value
"HIV-1 integrase (IN), recombinant, from the San Francisco isolate SF2 (enzyme)",stoichiometry N,2

# From article PMC549407
